The results in this text go back to patent US20220281980A1 (Bristol-Myers Squibb, published 2022).

Where a chain is given by its changes, count along the chain named.

The labels stand for the following.
T1: human MICA/B endogenously expressed on HeLa cells (MICA allele *008) (human, UniProt Q29983 24-331)
T1 construct: it speaks of MICA/B, so MICB may be present as well
T1 chain: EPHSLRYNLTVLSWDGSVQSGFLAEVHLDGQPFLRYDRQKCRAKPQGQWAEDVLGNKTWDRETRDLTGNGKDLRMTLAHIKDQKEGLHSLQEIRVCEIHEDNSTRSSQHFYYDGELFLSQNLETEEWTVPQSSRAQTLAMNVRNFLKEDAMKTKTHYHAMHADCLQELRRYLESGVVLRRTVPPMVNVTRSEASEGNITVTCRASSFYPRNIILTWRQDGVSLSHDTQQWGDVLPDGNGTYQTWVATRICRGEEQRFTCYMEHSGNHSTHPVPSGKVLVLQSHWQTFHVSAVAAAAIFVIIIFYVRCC

T2: recombinant soluble human MICA*002 antigen (human, UniProt Q29983 24-307)
T2 construct: also called huIMICA-his allele *002
T2 chain: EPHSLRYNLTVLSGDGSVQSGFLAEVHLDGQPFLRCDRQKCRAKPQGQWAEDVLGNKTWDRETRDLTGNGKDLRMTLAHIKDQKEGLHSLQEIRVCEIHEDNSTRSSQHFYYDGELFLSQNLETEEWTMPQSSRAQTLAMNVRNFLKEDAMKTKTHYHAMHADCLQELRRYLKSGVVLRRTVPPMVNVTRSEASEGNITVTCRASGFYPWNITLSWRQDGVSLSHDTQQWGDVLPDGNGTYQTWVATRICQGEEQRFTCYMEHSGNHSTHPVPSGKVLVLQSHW

T3: recombinant soluble human MICA*004 antigen (human, UniProt Q29983 24-307)
T3 construct: also called huIMICA-his allele *004
T3 chain: T2 chain with G14W, C36Y, L122V, M129V, K173E, G175S, T181R, G206S, W210R, W216T

T4: recombinant soluble human MICA*008 antigen (human, UniProt Q29983 24-307)
T4 construct: also called huIMICA-his allele *008; recombinant soluble MICA (allele 8)
T4 chain: T2 chain with G14W, C36Y, M129V, K173E, G206S, W210R, T213I, S215T, Q251R

T5: recombinant soluble human MICA*009 antigen (human, UniProt Q29983 24-307)
T5 construct: also called huIMICA-his allele *009
T5 chain: T2 chain with G14W, C36Y, M129V, K173E, G175S, G206S, W210R, S215T

B1: 19G6 (antibody, V domains shown)
VH: QVQLVESGGGVVQPGRSLRLSCAASGFTFSNYAMHWVRQAPGEGLEWVALIWYDGSNKFYGDSVKGRFTISRDNSKNTLYLQMNSLSAEDTAVYYCAREGSGHYWGQGTLVTVSS
VL: AIQLTQSPSSLSASVGDRVTITCRASQGISSALAWYQQKPGKVPKSLIYDASSLESGVPSRFSGSGSGTDFTLTISSLQPEDFATYYCQQFNSYPITFGQGTRLEIK
notes: Hybridoma antibody from human IgG transgenic mice, parent of MICA.36; also called 19G6 mAb; hybridoma 19G6
B2: MICA.2 (antibody, human IgG1, kappa, V domains shown)
VH: EVQLVESGGGLVQPGGSLRLSCAASGFTFSTYSMNWVRQAPGKGLEWVSYISYRSRTIYYADSVKGRFTISRDNARNSLYLQMNSLRDEDTAVYYCARWGYGSGGFDYWGQGTLVTVSS
VL: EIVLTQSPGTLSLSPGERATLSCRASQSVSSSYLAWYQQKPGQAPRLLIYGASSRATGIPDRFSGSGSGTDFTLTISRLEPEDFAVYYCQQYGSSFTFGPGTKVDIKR
notes: 3F5 variable regions on human IgG1f and human kappa constant regions, made in CHO-S cells; also called 3F5; recombinant antibody of 3F5
B3: 71C2 (antibody, V domains shown)
VH: EVQLVESGGGLVQPGRSLRLSCAASGFTFNNYAMHWVRQAPGKGLEWVSGITWNSDSIGYADSVKGRFTISRDNAKNSLYLQMNSLRAEDTALYYCAKDSVLLWFGGMDVWGQGTTVTVSS
VL: not shown
notes: Hybridoma antibody
B4: 24G11 (antibody, V domains shown)
VH: EVQLVQSGAEVKKPGESLKISCKGSGYSFTNYWIGWVRQMPGKGLEWLGIIHPGDSYTRYSPSFQGQVTISADKSISTAYLQWSSLKASDTAIYYCAREGIAATPFDYWGQGTLVTVSS
VL: EIVLTQSPATLSLSPGERATLSCRASQSVSSYLAWFQQKPGQAPRLLIYDASNRATGIPARFSGSGSGTDFTLTISSLEPEDFAVYYCQQRSNWPPTFGQGTKVEIK
notes: also called MICA.54; 24G11 (MICA.54)
B5: MICA.36 (antibody, V domains shown)
VH: B1 VH
VL: B1 VL
notes: it says that the name implies no specific constant region; Radioiodinated in the Scatchard assay; also called MICA.36 antibody

The target of one assay is T1, human MICA/B endogenously expressed on …. The experiment in a line: flow cytometry, tumor cells with endogenous MICA/B. (In flow cytometry, cells or beads pass a laser one at a time.)
Broadly, the EC50 is the midpoint of the concentration-response curve. A high value points to a need for much substance. With B1, the EC50 turned out to be 1.76 nM.

For B2, the EC50 worked out at 1.74 nM.

B3 displayed an EC50 of 10.2 nM.

With B4, the EC50 was 192 nM.

The target of a further assay is T2, recombinant soluble human MICA*002 …. The assay is described as follows: SPR (Biacore 3000), antibody captured on Protein G chip, huMICA-his analyte; power of ten not given. The protocol: (§1) Kinetics and affinity of anti-MICA/B antibodies MICA.2, 19G6, 16A5, and 71C2 towards human MICA alleles (huIMICA-his allele *002, *004, *008, and *009) were also determined on a BIACORE 3000® instrument using the following conditions: [0571] Running Buffer: HES-EP running buffer [0572] Chip: CM5 Protein G Chip Fc1: Blank. Fc2-4: ˜200Rus [0573] Ab: 5 ug/mL, 10 uL @ 10 uL/min [0574] Ag binding: 5 min association, 7 min dissociation @ 25 uL/min, [0575] Regeneration: Glycine 1.7, 10 uL @ 100 uL/min followed by 60s wash by HES-EP
A word on the koff: it is the rate constant with which the complex falls apart. For B1, the koff came to 8.14 s⁻¹.

Regarding B2, the koff is 0.0104 s⁻¹.

As for B3, the koff came out at 0.0116 s⁻¹.

The target of a further assay is T3, recombinant soluble human MICA*004 …. The assay is described as above. The protocol:
as §1
Turning to B1, the koff was 2.28 s⁻¹.

B2: the koff is 0.0284 s⁻¹.

Consider B3, for which the koff stood at 0.0303 s⁻¹.

Another assay has as its target T4, recombinant soluble human MICA*008 …. The description is as above. On the procedure: as §1
Regarding B1, the koff amounted to 1.87 s⁻¹.

B2: the koff stood at 0.0246 s⁻¹.

Regarding B3, the koff is 0.0109 s⁻¹.

The target in another assay is T5, recombinant soluble human MICA*009 …. The description is as above. On the procedure:
as §1
Turning to B1, the koff was found to be 2.15 s⁻¹.

Turning to B2, the koff turned out to be 0.0232 s⁻¹.

B3: the koff worked out at 0.0325 s⁻¹.

The next assay concerns the target T4, recombinant soluble human MICA*008 …. The experiment in a line: BLI (Octet) sandwich binning on soluble MICA allele 8, row antibody captured; competitor (second antibody): MICA.2. The protocol: (§2) The binning experiments were performed on an Octet HTX instrument at 25° C. in HEPES buffered saline (10 mM HEPES pH 7.4, 150 mM NaCl, 0.05% v/v surfactant P20, and 1 mg/mL BSA). Anti-MICA/B antibodies and NKG2D-mFc were captured on anti-Fc tips and remaining capture sites were blocked with an excess of negative control IgG. Recombinant soluble MICA (allele 8) was bound and subsequent binding (“sandwiching”) of anti-MICA/B antibodies was tested.
In the case of B5, the “simultaneous binding (0 = no, 1 = yes)” value is 1.

On to B2, for which the “simultaneous binding (0 = no, 1 = yes)” value came out at 0.

B4: the “simultaneous binding (0 = no, 1 = yes)” value came out at 1.

The next assay shares this target. The assay is described as follows: BLI (Octet) sandwich binning on soluble MICA allele 8, row antibody captured; competitor (second antibody): MICA.36. The protocol: as §2
Regarding B5, the “simultaneous binding (0 = no, 1 = yes)” value came to 0.

B2: the “simultaneous binding (0 = no, 1 = yes)” value worked out at 1.

With B4, the “simultaneous binding (0 = no, 1 = yes)” value stood at 0.

For the next assay the target is unchanged. The experiment in a line: BLI (Octet) sandwich binning on soluble MICA allele 8, row antibody captured; competitor (second antibody): MICA.39. The protocol:
as §2
(In BLI a coated tip is dipped into the sample, and binding shifts an interference pattern.)
B5: the “simultaneous binding (0 = no, 1 = yes)” value came to 1.

In the case of B2, the “simultaneous binding (0 = no, 1 = yes)” value turned out to be 0.

B4: the “simultaneous binding (0 = no, 1 = yes)” value worked out at 1.

For the next assay the target is unchanged. The experiment in a line: BLI (Octet) sandwich binning on soluble MICA allele 8, row antibody captured; competitor (second antibody): MICA.40. The protocol: as §2
Consider B5, for which the “simultaneous binding (0 = no, 1 = yes)” value stood at 1.

As for B2, the “simultaneous binding (0 = no, 1 = yes)” value was 0.

Regarding B4, the “simultaneous binding (0 = no, 1 = yes)” value turned out to be 1.
